Data taken from article PMC11434109, “VIK‐Mediated Auxin Signaling Regulates Lateral Root Development in Arabidopsis” (Advanced Science, 2024).

Target: T1, His-VIK (Arabidopsis, UniProt Q9XI87 1-438)
T1 construct: VIK, Arabidopsis, AT1G14000, N-terminal 6 x histidine tag and a full-length VIK protein; also called recombinant His-VIK; source: E. coli BL21 (DE3), purified (Ni NTA beads); not shown: His6, N-terminal, kept
T1 sequence (looked up): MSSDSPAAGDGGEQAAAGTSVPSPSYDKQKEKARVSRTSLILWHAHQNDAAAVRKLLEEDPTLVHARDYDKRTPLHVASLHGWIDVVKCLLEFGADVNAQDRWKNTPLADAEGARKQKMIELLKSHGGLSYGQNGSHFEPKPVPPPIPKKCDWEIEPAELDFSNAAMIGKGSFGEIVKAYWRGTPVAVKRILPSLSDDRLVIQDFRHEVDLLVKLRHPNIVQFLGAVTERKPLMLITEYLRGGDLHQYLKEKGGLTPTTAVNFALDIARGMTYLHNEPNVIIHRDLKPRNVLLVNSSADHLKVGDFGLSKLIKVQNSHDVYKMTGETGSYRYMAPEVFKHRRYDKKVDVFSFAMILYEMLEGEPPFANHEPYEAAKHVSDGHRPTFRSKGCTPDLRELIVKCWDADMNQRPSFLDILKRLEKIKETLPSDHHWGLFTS
Test: pull-down; GST-LBD18 immobilised on Glutathione Beads, incubated with His-VIK or His-MBP at 4 °C for 4 h; washed five times with 1 x PBS; blot with anti-His and anti-GST
Details: both partners purified

- binding result: binds
B1: GST-LBD18 (natural protein, Arabidopsis, UniProt O22131 1-262, looked up)
chain: MSGGGNTITAVGGGGGGCGGGGSSGGGGSSGGGGGGPCGACKFLRRKCVPGCIFAPYFDSEQGSAYFAAVHKVFGASNVSKLLLHIPVHRRSDAVVTICYEAQARIRDPIYGCVAHIFALQQQVVNLQAEVSYLQAHLASLELPQPQTRPQPMPQPQPLFFTPPPPLAITDLPASVSPLPSTYDLASIFDQTTSSSAWATQQRRFIDPRHQYGVSSSSSSVAVGLGGENSHDLQALAHELLHRQGSPPPAATDHSPSRTMSR
notes: the words full length are not used for this construct; also called recombinant GST-LBD18; source: E. coli BL21 (DE3), purified (Glutathione Beads); not shown: GST, N-terminal, kept
